Reference: US20090208977A1

How the values were obtained:
[1] = target: human BRS3 (ENSG00000102239) (human) (UniProt P32247); assay: flow cytometry, live human sperm; antibody not named (SC33404 is the only BRS3 antibody that bound)
[2] = target: human FMR1NB (ENSG00000176988) (human) (UniProt Q8N0W7); assay: flow cytometry, live human sperm; antibody not named (only one FMR1NB antibody was tried)
UniProt Q8N0W7, sequence (Q8N0W7 whole entry): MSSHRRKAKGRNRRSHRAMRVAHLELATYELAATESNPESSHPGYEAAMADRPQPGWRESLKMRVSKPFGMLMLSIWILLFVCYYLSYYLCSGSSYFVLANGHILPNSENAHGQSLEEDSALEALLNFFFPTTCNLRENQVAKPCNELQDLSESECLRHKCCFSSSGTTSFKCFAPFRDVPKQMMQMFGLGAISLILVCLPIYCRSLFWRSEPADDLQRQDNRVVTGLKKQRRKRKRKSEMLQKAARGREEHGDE

UniProt P32247, sequence (P32247 whole entry): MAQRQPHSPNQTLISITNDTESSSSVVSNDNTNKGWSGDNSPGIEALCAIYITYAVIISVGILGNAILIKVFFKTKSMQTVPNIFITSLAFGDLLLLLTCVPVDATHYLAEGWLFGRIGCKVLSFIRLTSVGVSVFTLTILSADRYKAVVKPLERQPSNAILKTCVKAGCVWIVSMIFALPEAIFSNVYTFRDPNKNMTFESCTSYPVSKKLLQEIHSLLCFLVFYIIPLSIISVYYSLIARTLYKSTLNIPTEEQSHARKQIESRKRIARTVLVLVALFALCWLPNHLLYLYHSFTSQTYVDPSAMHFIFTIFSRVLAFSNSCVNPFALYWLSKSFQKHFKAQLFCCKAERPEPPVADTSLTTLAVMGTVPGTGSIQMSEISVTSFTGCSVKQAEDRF

Q: How did the Sperm cells showing specific binding (%) [1] turn out when “BRS-3 (N-14), Santa Cruz Biotechnology SC-33404 (antibody)” was run?
A: 10.7%

Q: Which Sperm cells showing specific binding (%) [2] does the source give for “FMR1NB antibody, Proteintech Group 11069-2-AP” here?
A: 29.7%
